Assay results reported in the Human Domainome abundance scans (Beltran et al. 2025).
± gives the uncertainty stated by the source.

B1: Zinc finger homeobox protein 3, residues 2147 to 2202; numbered along this chain, Q15911 (parent)
chain: RPRTRITDDQLRVLRQYFDINNSPSEEQIKEMADKSGLPQKVIKHWFRNTLFKERQ

Variants of: B1
Assay: abundance fitness (aPCA) (normalised: wild type 0, dead -1); higher = more abundant; growth selection in yeast, the domain comes from the species named
Settings: Homo sapiens

Abundance fitness, by site and new letter:
R12: M 0.077 ± 0.083 | W -0.456 ± 0.072 | A -0.122 ± 0.069 | F -0.193 ± 0.12 | S 0.018 ± 0.071 | N -0.061 ± 0.11 | K 0.051 ± 0.092 | P -0.477 ± 0.086 | G -0.067 ± 0.063 | C -0.067 ± 0.084 | I 0.046 ± 0.098 | D -0.21 ± 0.093 | H -0.128 ± 0.12 | L -0.085 ± 0.064 | Q -0.082 ± 0.086 | Y -0.4 ± 0.11 | V 0.04 ± 0.065 | T -0.205 ± 0.076
E26: L -0.089 ± 0.073 | I 0.086 ± 0.12 | C 0.024 ± 0.091 | K -0.016 ± 0.098 | G -0.192 ± 0.066 | D 0.063 ± 0.097 | V -0.082 ± 0.071 | N -0.082 ± 0.15 | M -0.133 ± 0.11 | Q 0.171 ± 0.098 | P 0.031 ± 0.09 | F -0.071 ± 0.13 | A -0.043 ± 0.073 | T -0.057 ± 0.091 | R -0.093 ± 0.064 | Y 0.004 ± 0.13 | W -0.265 ± 0.084 | H -0.001 ± 0.11
E31: C -0.213 ± 0.11 | D 0.047 ± 0.12 | A -0.151 ± 0.085
I20: A 0.009 ± 0.074 | Y -0.237 ± 0.12 | K -0.081 ± 0.14 | D -0.087 ± 0.1 | M 0.02 ± 0.1 | L -0.036 ± 0.072 | N 0.008 ± 0.14 | T -0.052 ± 0.093 | P 0.036 ± 0.089 | E -0.228 ± 0.085 | Q -0.019 ± 0.096 | C 0.1 ± 0.085 | F -0.037 ± 0.11 | V -0.074 ± 0.069 | W -0.184 ± 0.077 | G -0.045 ± 0.063 | H -0.001 ± 0.19
Q28: V -0.064 ± 0.076 | E -0.102 ± 0.096 | N -0.171 ± 0.14 | L -0.205 ± 0.075 | G -0.209 ± 0.066 | A -0.042 ± 0.081 | W -0.642 ± 0.086 | M -0.168 ± 0.1 | F -0.562 ± 0.15 | K -0.327 ± 0.12 | I -0.033 ± 0.13 | R -0.221 ± 0.065 | D -0.278 ± 0.14 | Y -0.385 ± 0.13 | H -0.058 ± 0.13 | C -0.423 ± 0.089
D19: C -0.094 ± 0.086 | H -0.034 ± 0.097 | Q -0.207 ± 0.11 | E 0.022 ± 0.085 | G -0.125 ± 0.061 | S -0.015 ± 0.073 | P -0.336 ± 0.11 | K 0.101 ± 0.1 | Y 0.044 ± 0.12 | F -0.171 ± 0.12 | W -0.131 ± 0.076 | V 0.014 ± 0.069 | T -0.02 ± 0.089 | L 0.032 ± 0.075 | M 0.044 ± 0.1 | N -0.056 ± 0.1 | I -0.051 ± 0.1 | R -0.031 ± 0.061
Q16: G 0.008 ± 0.068 | A -0.065 ± 0.076 | E -0.045 ± 0.091 | N -0.174 ± 0.29 | M -0.01 ± 0.086 | K 0.092 ± 0.093 | T -0.012 ± 0.091 | L -0.091 ± 0.076 | V -0.162 ± 0.074 | D -0.025 ± 0.15 | R 0.001 ± 0.062 | F -0.196 ± 0.18 | W -0.09 ± 0.075 | S 0.122 ± 0.076 | I -0.469 ± 0.18 | P -0.242 ± 0.1 | H -0.101 ± 0.16
K30: Q -0.323 ± 0.11 | C -0.217 ± 0.12 | I -0.133 ± 0.15 | N -0.637 ± 0.2 | F -0.264 ± 0.16 | R -0.193 ± 0.072 | D -0.155 ± 0.11 | P -0.679 ± 0.14 | G -0.188 ± 0.069 | H -0.161 ± 0.14 | W -0.537 ± 0.099 | A -0.006 ± 0.081 | M -0.107 ± 0.11 | T -0.061 ± 0.1 | S -0.205 ± 0.092 | L -0.239 ± 0.088
L14: N -1.22 ± 0.21 | R -0.982 ± 0.083 | F -0.064 ± 0.16 | M 0.058 ± 0.1 | V -0.49 ± 0.076 | E -0.947 ± 0.12 | S -0.998 ± 0.11 | T -0.942 ± 0.12 | G -0.876 ± 0.076 | P -1.05 ± 0.16 | Q -1.13 ± 0.15 | I -0.217 ± 0.15 | D -0.932 ± 0.16 | Y -1.02 ± 0.17 | H -0.666 ± 0.14 | A -0.951 ± 0.094 | W -0.721 ± 0.1 | K -1.03 ± 0.18
S25: V -0.356 ± 0.078 | F -0.623 ± 0.15 | H -0.537 ± 0.23 | Q -0.223 ± 0.098 | W -0.901 ± 0.1 | M -0.523 ± 0.098 | N -0.196 ± 0.13 | R -0.202 ± 0.071 | A -0.14 ± 0.071 | P -0.191 ± 0.099 | T 0.012 ± 0.097 | Y -0.382 ± 0.14 | K -0.045 ± 0.1 | E -0.111 ± 0.089 | G 0.024 ± 0.069 | I -0.361 ± 0.15 | D -0.225 ± 0.16 | C -0.244 ± 0.12
E27: G -0.071 ± 0.065 | A 0.027 ± 0.072 | T -0.011 ± 0.089 | I -0.05 ± 0.13 | L -0.102 ± 0.072 | H -0.147 ± 0.13 | M -0.039 ± 0.097 | S 0.024 ± 0.077 | P -0.078 ± 0.09 | Y -0.08 ± 0.13 | Q 0.034 ± 0.092 | C -0.019 ± 0.094 | K 0.124 ± 0.11 | R -0.046 ± 0.062 | W -0.341 ± 0.079 | D 0.075 ± 0.1 | V 0.013 ± 0.074
F18: Q -0.203 ± 0.095 | H -0.259 ± 0.14 | T -0.109 ± 0.091 | N -0.451 ± 0.17 | S -0.1 ± 0.076 | Y 0.016 ± 0.14 | D -0.419 ± 0.11 | K -0.039 ± 0.11 | A -0.187 ± 0.073 | W 0.022 ± 0.077 | E -0.555 ± 0.091 | V -0.333 ± 0.072 | C -0.161 ± 0.093 | L -0.137 ± 0.072 | M -0.15 ± 0.1 | R -0.069 ± 0.064 | G -0.263 ± 0.062
N22: R 0.116 ± 0.069 | M 0.038 ± 0.097 | P -0.035 ± 0.099 | F -0.222 ± 0.17 | A 0.022 ± 0.072 | Q 0.038 ± 0.091 | I -0.052 ± 0.14 | H 0.219 ± 0.15 | T 0.079 ± 0.089 | W -0.19 ± 0.083 | E -0.057 ± 0.094 | D -0.189 ± 0.12 | K -0.085 ± 0.11 | L -0.092 ± 0.074 | C 0.001 ± 0.11 | S 0.001 ± 0.086 | V -0.022 ± 0.071 | Y -0.076 ± 0.14 | G -0.152 ± 0.065
I29: A -0.476 ± 0.078 | Y -0.189 ± 0.25 | N -0.44 ± 0.13 | W -0.387 ± 0.1 | L 0.09 ± 0.079 | G -0.827 ± 0.082 | D -1.17 ± 0.26 | C -0.279 ± 0.14 | P -0.838 ± 0.17 | Q -0.225 ± 0.12 | M -0.008 ± 0.1 | R -0.507 ± 0.073 | H -0.282 ± 0.19 | E -0.334 ± 0.095 | K -0.634 ± 0.13 | S -0.491 ± 0.093 | T -0.109 ± 0.12
V13: S -0.033 ± 0.061 | L 0.055 ± 0.061 | F -0.012 ± 0.072 | Y -0.037 ± 0.071 | P -0.587 ± 0.068 | E -0.01 ± 0.1 | R -0.243 ± 0.067 | K -0.054 ± 0.083 | C -0.149 ± 0.075 | H -0.199 ± 0.069 | I 0.097 ± 0.073 | T -0.044 ± 0.065 | G -0.415 ± 0.078 | W 0.003 ± 0.096 | Q 0.043 ± 0.076 | A -0.22 ± 0.079 | N -0.227 ± 0.073
N21: M -0.103 ± 0.12 | E -0.005 ± 0.095 | Q -0.105 ± 0.1 | F -0.421 ± 0.11 | D -0.102 ± 0.13 | V -0.171 ± 0.071 | G -0.153 ± 0.077 | T 0.152 ± 0.09 | H -0.01 ± 0.13 | S -0.013 ± 0.084 | P -0.335 ± 0.11 | Y 0.014 ± 0.15 | K -0.018 ± 0.1 | L -0.256 ± 0.079 | A -0.008 ± 0.074 | I -0.276 ± 0.13 | C -0.14 ± 0.11 | W -0.38 ± 0.12
R15: A -0.23 ± 0.073 | Q -0.045 ± 0.08 | P -0.898 ± 0.091 | F -0.152 ± 0.13 | E -0.048 ± 0.082 | M -0.023 ± 0.084 | G -0.256 ± 0.067 | W -0.125 ± 0.073 | S -0.067 ± 0.068 | V -0.226 ± 0.077 | K -0.074 ± 0.091 | D -0.29 ± 0.12 | T -0.023 ± 0.084 | Y -0.127 ± 0.13 | H 0.099 ± 0.11 | L -0.244 ± 0.066
Y17: I -0.175 ± 0.12 | V -0.153 ± 0.067 | Q -0.196 ± 0.095 | S -0.207 ± 0.074 | L -0.133 ± 0.067 | H -0.127 ± 0.12 | E -0.168 ± 0.082 | N -0.095 ± 0.12 | W -0.181 ± 0.074 | P -0.838 ± 0.1 | M 0.083 ± 0.081 | F 0.026 ± 0.12 | R -0.369 ± 0.067 | T -0.369 ± 0.093 | C -0.204 ± 0.083 | A -0.165 ± 0.077 | D -0.184 ± 0.1
P24: C -0.534 ± 0.098 | H -0.566 ± 0.14 | Q -0.747 ± 0.11 | W -0.485 ± 0.088 | M -0.5 ± 0.12 | S -1 ± 0.095 | D -0.8 ± 0.11 | E -0.673 ± 0.11 | L -0.315 ± 0.076 | T -0.585 ± 0.1 | G -0.685 ± 0.074 | V -0.413 ± 0.072 | R -0.716 ± 0.071 | N -0.873 ± 0.18 | F -0.746 ± 0.15 | A -0.606 ± 0.082 | I -0.652 ± 0.16 | Y -0.519 ± 0.13
S23: A -0.033 ± 0.08 | Y -0.255 ± 0.2 | W -0.243 ± 0.09 | C 0.081 ± 0.16 | P -0.21 ± 0.15 | I -0.501 ± 0.23 | V -0.216 ± 0.072 | Q 0.004 ± 0.12 | L -0.149 ± 0.087 | N -0.14 ± 0.26 | F -0.025 ± 0.15 | D 0.076 ± 0.14 | K -0.07 ± 0.12 | R -0.085 ± 0.073 | H 0.055 ± 0.28 | T 0.102 ± 0.11 | E -0.123 ± 0.093 | M -0.035 ± 0.13 | G -0.268 ± 0.066
